The supplement of paper PMC9233669
Fewer inactive variants are shown than the library holds.

What was measured:
[1] = test system: biotinyl-Trp-oxazolone; experiment: self-aminoacylation, catalytic enhancement (BWO) (fold over background); higher = more active; k-Seq, kA / k0A0; sequences stand for … in GGGAAUGGAUCCACAUCUACGAAUUC…UUCACUGCAGACUUGACGAAGCUG
Method in brief: (§1)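 Working in 50 μL HEPES/NaCl/KCl/MgCl2/CaCl2 buffer with 5% acetonitrile at pH 6.9–7.0, mutagenized RNA pools (0.43 μM; 21-nt variable region) were reacted with 2–1250 μM of each biotinyl-aminoacyl-oxazolone for 90 minutes at room temperature. Streptavidin capture followed, with quantification by triplicate qPCR and Illumina sequencing. Catalytic enhancement is reported as median kA over the uncatalyzed rate, the low-activity peak of a bimodal Gaussian fit to the data.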

[2] = test system: biotinyl-Val-oxazolone; experiment: self-aminoacylation, catalytic enhancement (BVO) (fold over background); higher = more active; k-Seq, kA / k0A0; sequences stand for … in GGGAAUGGAUCCACAUCUACGAAUUC…UUCACUGCAGACUUGACGAAGCUG
Method in brief: as §1

[3] = test system: biotinyl-Met-oxazolone; experiment: self-aminoacylation, catalytic enhancement (BMO) (fold over background); higher = more active; k-Seq, kA / k0A0; sequences stand for … in GGGAAUGGAUCCACAUCUACGAAUUC…UUCACUGCAGACUUGACGAAGCUG
Method in brief: as §1

[4] = test system: biotinyl-Ile-oxazolone; experiment: self-aminoacylation, catalytic enhancement (BIO) (fold over background); higher = more active; k-Seq, kA / k0A0; sequences stand for … in GGGAAUGGAUCCACAUCUACGAAUUC…UUCACUGCAGACUUGACGAAGCUG
Method in brief: as §1

[5] = test system: biotinyl-Phe-oxazolone; experiment: self-aminoacylation, catalytic enhancement (BFO) (fold over background); higher = more active; k-Seq, kA / k0A0; sequences stand for … in GGGAAUGGAUCCACAUCUACGAAUUC…UUCACUGCAGACUUGACGAAGCUG
Method in brief: as §1

[6] = test system: biotinyl-Leu-oxazolone; experiment: self-aminoacylation, catalytic enhancement (BLO) (fold over background); higher = more active; k-Seq, kA / k0A0; sequences stand for … in GGGAAUGGAUCCACAUCUACGAAUUC…UUCACUGCAGACUUGACGAAGCUG
Method in brief: as §1

Row | Sequence | self-aminoacylation [1] | self-aminoacylation [2] | self-aminoacylation [3] | self-aminoacylation [4] | self-aminoacylation [5] | self-aminoacylation [6]
1 | AAAUUAGCUAAUAGUCGCAAG [Fam3.1 aminoacylation ribozyme variant] | 3.09 | 1.81 | 1.85 | 2.36 | 2.21 | 1.92
2 | AAAUUUCCUAAUAGUCGCAAG [Fam3.1 aminoacylation ribozyme variant] | 0.976 | 1.09 | 1.1 | 1.24 | 1.2 | 1.18
3 | AAAUUUGCGAAUAGUCGCAAG [Fam3.1 aminoacylation ribozyme variant] | 1.54 | 1.56 | 1.59 | 1.71 | 1.99 | 1.33
4 | AAAUUUGCUAAUACUCGCAAG [Fam3.1 aminoacylation ribozyme variant] | 1.51 | 1.34 | 1.33 | 1.36 | 1.63 | 1.25
5 | AAAUUUGCUAAUAGGCGCAAG [Fam3.1 aminoacylation ribozyme variant] | 1.25 | 1.04 | 1.28 | 1.41 | 1.29 | 1.51
6 | AAAUUUGCUAAUAGUAGCAAG [Fam3.1 aminoacylation ribozyme variant] | 1.96 | 1.27 | 1.38 | 1.59 | 2.63 | 1.26
7 | AAAUUUGCUAAUAGUCACAAG [Fam3.1 aminoacylation ribozyme variant] | 1.71 | 1.49 | 1.62 | 1.58 | 2.81 | 1.26
8 | AAAUUUGCUAAUAGUCGCAAC [Fam3.1 aminoacylation ribozyme variant] | 1.52 | 1.51 | 1.31 | 1.88 | 1.64 | 1.91
9 | AAAUUUGCUAAUAGUCGCAUG [Fam3.1 aminoacylation ribozyme variant] | 3.67 | 1.8 | 2.13 | 2.28 | 2.04 | 2.81
10 | AAAUUUGCUACUAGUCGCAAG [Fam3.1 aminoacylation ribozyme variant] | 2.54 | 1.63 | 1.96 | 2.05 | 1.86 | 1.59
11 | AACGUUGCUAAUAGUCGCAAG [Fam3.1 aminoacylation ribozyme variant] | 1.97 | 1.68 | 1.81 | 1.64 | 2.3 | 1.66
12 | AACUUUACUAAUAGUCGCAAG [Fam3.1 aminoacylation ribozyme variant] | 2.92 | 1.86 | 2.23 | 2.07 | 6.76 | 2.26
13 | AACUUUCCUAAUAGUCGCAAG [Fam3.1 aminoacylation ribozyme variant] | 1.72 | 1.11 | 1.4 | 1.29 | 2.29 | 1.58
14 | AACUUUGAUAAUAGUCGCAAG [Fam3.1 aminoacylation ribozyme variant] | 1.55 | 1.42 | 1.66 | 1.71 | 2.61 | 1.91
15 | AACUUUGCAAAUAGUCGCAAG [Fam3.1 aminoacylation ribozyme variant] | 1.99 | 1.94 | 1.96 | 2.3 | 4.66 | 2.8
16 | AACUUUGCUAAGAGUCGCAAG [Fam3.1 aminoacylation ribozyme variant] | 5.02 | 2.62 | 3.93 | 2.78 | 12.8 | 4.13
17 | AACUUUGCUAAUAGUCCCAAG [Fam3.1 aminoacylation ribozyme variant] | 1.51 | 1.64 | 1.56 | 1.92 | 3.69 | 1.6
18 | AACUUUGCUAAUAGUCGCAAU [Fam3.1 aminoacylation ribozyme variant] | 2.77 | 2.51 | 2.79 | 2.94 | 6.33 | 3.35
19 | AAGCUUGCUAAUAGUCGCAAU [Fam3.1 aminoacylation ribozyme variant] | 2.66 | – | 2.34 | 2.93 | 2.59 | –
20 | AAGCUUGCUUAUAGUCGCAAG [Fam3.1 aminoacylation ribozyme variant] | – | – | – | 2.13 | 3.55 | –
21 | AAGGUCGCUAAUAGUCGCAAG [Fam3.1 aminoacylation ribozyme variant] | 2.4 | 2.13 | – | – | 2.86 | –
22 | AAGUAUGCUAAUAGUCGCGAG [Fam3.1 aminoacylation ribozyme variant] | 4.06 | – | – | 2.14 | 5.66 | 2.21
23 | AAGUUCGCCAAUAGUCGCAAG [Fam3.1 aminoacylation ribozyme variant] | 2.98 | – | 2.18 | 2.29 | 2.83 | 2.67
24 | AAUUUUGGUAAUAGUCGCAAG [Fam3.1 aminoacylation ribozyme variant] | – | – | 2.19 | 2.06 | 2.19 | –
25 | ACGUUUGCUAAUAGUCGCAAA [Fam3.1 aminoacylation ribozyme variant] | 2.36 | – | – | 2.01 | 2.87 | –
26 | ACGUUUGCUAAUAGUCGCAUG [Fam3.1 aminoacylation ribozyme variant] | – | – | 2.14 | 2.21 | 3.06 | 2.5

Row | Sequence | self-aminoacylation [1] | self-aminoacylation [2] | self-aminoacylation [3] | self-aminoacylation [4] | self-aminoacylation [5] | self-aminoacylation [6]
27 | ACGUUUGCUAAUAGUCGCGAG [Fam3.1 aminoacylation ribozyme variant] | – | 2.12 | – | 2.65 | 10.4 | 2.48
28 | ACUACCCUGGUCAUCGAGGGA [Fam2.1 aminoacylation ribozyme variant] | 3.04 | – | 3.62 | 2.12 | 2.42 | 3.13
29 | AUCACCCUGGUCAUCGAGCGA [Fam2.1 aminoacylation ribozyme variant] | 2.62 | 2.53 | 2.16 | 2.01 | – | 3.35
30 | AUCACCCUGGUCAUCGAGGGA [Fam2.1 aminoacylation ribozyme variant] | 2.94 | 2.03 | 2.2 | – | 12.5 | 3.12
31 | AUUACCCUGGACUUCGAGUGA [Fam2.1 aminoacylation ribozyme variant] | 4.38 | 2.17 | 2.96 | – | 11.4 | 3.17
32 | AUUACCCUGGUCAUCGAGCCA [Fam2.1 aminoacylation ribozyme variant] | 3.35 | – | 2.36 | 2.01 | 2.92 | 2.23
33 | AUUACCGUGGUGAUCGAGUGA [Fam2.1 aminoacylation ribozyme variant] | 5.02 | 2.31 | 3.87 | – | 15.6 | 3.67
34 | AUUCACCGAGGUCAUCGGGUC [Fam2.2 aminoacylation ribozyme variant] | – | 2.71 | – | 2.18 | 7.57 | 2.52
35 | AUUCACCUAAGUCAUCGGGUA [Fam2.2 aminoacylation ribozyme variant] | 2.8 | 2.62 | 2.44 | 2.81 | – | 3
36 | AUUCACCUAGCUCAUCGGGUG [Fam2.2 aminoacylation ribozyme variant] | – | 2.1 | – | – | 7.85 | 2.05
37 | AUUCACCUAGGGCAUCGGGGG [Fam2.2 aminoacylation ribozyme variant] | – | 2.93 | 2.65 | 2.98 | 7.22 | 3.63
38 | AUUCACCUCGGUCAUCGGCUG [Fam2.2 aminoacylation ribozyme variant] | 2.02 | 2.65 | – | – | 8.33 | –
39 | AUUCACGUAGGUCAUCGGGCG [Fam2.2 aminoacylation ribozyme variant] | – | 2.56 | 2.41 | 2.07 | 5.97 | 2.57
40 | AUUCACUUAGUUCAUCGGGUG [Fam2.2 aminoacylation ribozyme variant] | 3.28 | – | 2.58 | 2.18 | 11.1 | 2.93
41 | AUUGCCCUGGUCAUCGAGCGA [Fam2.1 aminoacylation ribozyme variant] | 3.11 | 2.33 | 2.55 | – | 3.91 | 3.48
42 | CCACACUUCACGCAAUCGGCC [Fam1B.1 aminoacylation ribozyme variant] | 4.2 | 3.47 | 2.28 | 2.2 | 13.9 | –
43 | CCACACUUCGCGCAAUCGGUC [Fam1B.1 aminoacylation ribozyme variant] | 2.77 | 2.51 | – | 2.21 | 10.5 | 2.41
44 | CCACGCUUCAAGCAAUCGGCC [Fam1B.1 aminoacylation ribozyme variant] | 8.15 | 2.77 | – | – | 7.98 | –
45 | CCCCGCUUCAAGCAAUCGGUC [Fam1B.1 aminoacylation ribozyme variant] | 70.4 | 2.69 | 2.12 | – | 142 | 3.73
46 | CCGCGCUUCAAGCAAUCGGUC [Fam1B.1 aminoacylation ribozyme variant] | 77.2 | 2.74 | 2.37 | – | 158 | 3.16
47 | CGACACUUCAAGCAAUCGGUG [Fam1B.1 aminoacylation ribozyme variant] | – | 2.27 | 2.37 | 2.4 | – | 2.22
48 | CUACUGCAAACAAUCGGCCUG [Fam1A.1 aminoacylation ribozyme variant] | 2.81 | 2.27 | 2.1 | – | 3.31 | 2.27
49 | CUACUUCAAACAUUCGGGCUG [Fam1A.1 aminoacylation ribozyme variant] | – | 2.14 | 2.06 | 2.24 | – | –
50 | CUUCACCUAGAUCAUCGGGUG [Fam2.2 aminoacylation ribozyme variant] | 3.41 | 2.12 | 3.54 | – | 8.35 | 2.86
51 | UUUCACCUAGGUAAUCGGGUG [Fam2.2 aminoacylation ribozyme variant] | 3.75 | – | 2.66 | 2.1 | 13.1 | 2.27
